Data reported in patent US4397951A, “Elastase-containing composition permitting elastase to be absorbed in increased amount” (Eisai Co., Ltd., priority 1981, dated 1983).
Like-named read-outs stand apart in the source and are kept apart here.

Assays:
[1] = Serum elastase level, Tmax, Cmax, AUC after intraduodenal aqueous solution (Effect Example 3); assay type: in vivo, beagles; details: intraduodenal 5 ml solution, 55.2 mg elastase (326 EL. U/mg)
Description: An aqueous control solution was prepared by adding 55.2 mg of elastase (326 EL. U/mg) alone to 5 ml of water.
Four beagles (weighing 10.5-14.0 kg) were divided into 2 aliquot groups, each being 2 subjects. […] The subjects were fasted overnight, and the abdomen was cut open along the median line under anesthesia in the following morning. Then, 5 ml of the respective sample and control solutions were introduced into duodendum using injection tube, followed by immediate suturing. 3 ml of the blood were respectively taken prior to the administration of the solutions, and at the elapsed times of 1, 2, 4, 6, 8, 10, 12 and 24 hours after the administration of the solutions. About 1 ml of serum was respectively separated by means of centrifuge.
Serum elastase levels were measured in accordance with "Enzyme-immunological method", as described in the effect example 1.

[2] = intraintestinal, rats, cited from earlier work
[3] = background statement; cited from earlier work
[4] = statement; cited from earlier work
elastin = assay: Elastase activity (decomposition of insoluble elastin); assay type: biochemical; details: pH 8.8, 37°C, 30 min, elastin substrate
Description: In the present invention, the compounding ratio of pure elastase to sucrose fatty acid ester is specified in terms of weight ratio for convenience' sake. […] That is, at present available pure elastase has an activity of 340 elastase activity units (abbreviated as 340 EL. U) per mg measured by the method to be described hereinafter, and therefore the composition of the present invention is also defined as an elastase-containing composition containing 0.5 to 50 mg of sucrose fatty acid ester per 340 EL. U of elastase. More specifically, the composition of the present invention is an elastase-containing composition which contains 0.5 to 50 mg of sucrose fatty acid ester per 340 EL. U (measured by the measuring method described hereinafter) of elastase.
An elastase-containing sample is accurately weighed, and dissolved in a diluted Palitzsch buffer solution to make a 250 ml elastase enzyme solution. 1 ml of the elastase enzyme solution is added to 4 ml of a substrate solution, and incubation is conducted for 30 minutes at 37°±0.1° C. with shaking at 100 strokes/min. […]
The amount of soluble elastin produced per minute as a result of decomposition of insoluble elastin under the above-described measuring conditions is determined as an amount of tyrosine (μg) by which EL. […]

Substance: Control Solution: 55.2 mg of elastase (326 EL. U/mg) alone in 5 ml of water
- AUC0-24hr [1]: 125.84 ng·h/mL
- AUC0-24hr ([1]; 1440 min): 307.18 ng·h/mL

Substance: ^131 I-elastase: 131I-labelled elastase dissolved in a physiological saline solution
- amount absorbed (blood vessel route plus lymphatic vessel route) ([2]; 1 mg in physiological saline): 0.15%
- amount absorbed (blood vessel route plus lymphatic vessel route) ([2]; 5 mg in physiological saline): 0.05%

Substance: elastase: decomposing enzyme for elastin, extracted from porcine pancreas; polypeptide having a molecular weight of 25,900
- effect on elasticity of blood vessel [3]: increase elasticity of blood vessel
- effect on serum lipid level [3]: normalize serum lipid level
- stability to gastric acid [4]: unstable to gastric acid
- elastase activity (elastin): 340 EL. U per mg
